According to patent US6919086B1, “Graminae pollen allergen mutants for specific immunotherapy, and production and use of the same” (Merck Patent Gesellschaft mit, priority 1997, dated 2005):

How the values were obtained:
[1] = tested on: Phl p 5b-reactive T cell clones (TCCs) from allergic patients; experiment: Proliferative reaction of Phl p 5b-reactive T cell clones ([3H]-thymidine incorporation); assay type: cell-based, human; details: final concentration 0.3 μM
Procedure: (§1) 40 ml of heparinized blood were obtained from each patient. Peripheral mononuclear cells (PBMC) were then isolated from this blood sample by means of the customary method using density gradient centrifugation. Analogous cell isolations were carried out at a later stage when it was necessary to obtain irradiated autologous antigen-presenting cells (APC) for characterizing the TCL and TCC further. After the PBMC had been counted, TCL which reacted to group 5 allergens in vitro were established as follows and as has already been described in detail elsewhere (Lit. 1): in each well of 24-well microculture plates, from 1.5 to 2.0×10^6 PBMC in 1 ml of culture medium (UltraCulture) were stimulated for 7 days in the added presence of natural Phl p5 allergens (in each case 10 μg/well) which had been purified by immunoaffinity chromatography. A total of from 8 to 10 of these cultures were set up. The isolation of Phl p5 by means of immunoaffinity chromatography has been described in detail (Lit. 2). At the end of the 7 days of culture, IL-2 (from 10 to 20 IU/well) was added to the cell cultures for a further 5 to 7 days. All the individual cultures were then pooled and the T cell blasts were enriched by means of density gradient centrifugation; the TCL which were obtained were then tested in a specific lymphocyte proliferation test (see Lit. 1 as well). For this, 2×10^4/ml TCL blasts were in each case cultured with 5×10^4/ml irradiated autologous APCs in triplicate samples in 96-well microculture plates. 10-20 μg of Phl p5 allergen were added as the specific antigen stimulus. After 56 hours of incubation, ^3H-labelled thymidine (1 μCi/well) was pipetted into the microcultures. After a further 16 hours, the radioactivity which had been incorporated into the proliferating T cell blasts was measured in a beta counter (Matrix 96). The results were calculated, as the arithmetic mean of the multiple samples, in counts per minute (cpm). The criterion for the quality of the TCL was the stimulation index, which was obtained by relating the cpm values with Phl p5 addition to those without Phl p5 addition.
After a TCL had been cloned (see below), the specificity of the isolated TCCs were determined as has just been described. Stimulation indices of at least 5 were rated as being positive for the TCCs. The determination of T cell epitopes for defining the T cell-reactive regions on group 5 allergens was also carried out using specific proliferation tests, with 1-2 μg of synthesized dodecapeptide/ml being used for this purpose in each case (see below).
The reactivity of the recombinant Ph1 p 5b mutants was tested on established T cell clones (TCCs) of known specificity. The TCCs derive from patients who are allergic to grass pollen (see Ex. 1) and are directed against the T cell-reactive regions A (FIG. 7), B (FIG. 8) and C (FIG. 9). The T cell reactivity was measured by stimulating the clones to proliferate.

[2] = tested on: Phl p 5b-reactive T cell lines (TCLs) from allergic patients; experiment: Proliferative reaction of Phl p 5b-reactive oligoclonal T cell lines ([3H]-thymidine incorporation); assay type: cell-based, human; details: secondary activator 0.3 μM
Procedure: In the second phase, oligoclonal T cell lines, which have been established by repeated stimulation with the relevant allergens, are employed for the testing. Once again, only those modified recombinant allergens which at least give rise to a stimulation index (SI) of 50% of the SI of the wild type are taken into consideration.
as §1
The oligoclonal T cell lines (TCLs) from 8 patients who were allergic to grass pollen (see Ex. 1) were established by repeated activation with natural Ph1 p 5b (a+b) or recombinant rPh1 p 5b or 5a+5b.
The proliferative reaction of these TCLs was tested using the rPh1 p 5b mutants (FIG. 10).

[3] = biological target: IgE antibodies of the allergic patient serum pool We 6/97; experiment: EAST inhibition, serum pool We 6/97
[4] = biological target: IgE antibodies of the allergic patient serum pool Bor 18/100 (20 donors); experiment: EAST inhibition, serum pool Bor 18/100
[5] = biological target: IgE antibodies of the individual allergic patient serum II/3; experiment: EAST inhibition, individual serum II/3
[6] = biological target: IgE antibodies of the individual allergic patient serum II/17; experiment: EAST inhibition, individual serum II/17

B1: rPhl p 5b point mutant PM3 (A13C) (protein)
chain: ADAGYAPATPAACGAAAGKATTEEQKLIEDINVGFKAAVAAAASVPAADKFKTFEAAFTSSSKAAAAKAPGLVPKLDAAYSVAYKAAVGATPEAKFDSFVASLTEALRVIAGALEVHAVKPVTEEPGMAKIPAGELQIIDKIDAAFKVAATAAATAPADDKFTVFEAAFNKAIKESTGGAYDTYKCIPSLEAAVKQAYAATVAAAPQVKYAVFEAALTKAITAMSEVQKVSQPATGAATVAAGAATTAAGAASGAATVAAGGYKV
[1]; T cell-reactive region A
  Incorporation of [3H]-thymidine into TCC CB 2 (stimulation index class): +++ (>10 (+++))
  Incorporation of [3H]-thymidine into TCC JR 13 (stimulation index class): +++ (>10 (+++))
[1]; T cell-reactive region B
  Incorporation of [3H]-thymidine into TCC UZH2 (stimulation index class): +++ (>10 (+++))
[1]; T cell-reactive region C
  Incorporation of [3H]-thymidine, stimulation index SI, 1st exp.: 7.4
  Incorporation of [3H]-thymidine, stimulation index SI, 2nd exp.: 5.9
  Incorporation of [3H]-thymidine, stimulation index SI, 3rd exp.: 4.5
  Incorporation of [3H]-thymidine, stimulation index class (last column, no head): ++ (5-10 (++))
[2]; primary stimulator n Phl p 5
  Incorporation of [3H]-thymidine into TCL 3 Fre (stimulation index class): + (1-2 (+))
  Incorporation of [3H]-thymidine into TCL 4 Mer (stimulation index class): + (1-2 (+))
[2]; primary stimulator r Phl p 5
  Incorporation of [3H]-thymidine into TCL 5 17.4 (stimulation index class): + (1-2 (+))
[2]; primary stimulator r Phl p 5b
  Incorporation of [3H]-thymidine into TCL 7 19.2 (stimulation index class): +++ (>10 (+++))
  Incorporation of [3H]-thymidine into TCL 8 20.1 (stimulation index class): + (1-2 (+))
[3]
  IC50: 30 nM
  allergenic potency (Prel) at 25% inhibition (relative to native Phl p 5b): 0.611
  allergenic potency (Prel) at 50% inhibition (relative to native Phl p 5b): 0.203
  inhibition value (inhibitor concentration at 25% inhibition): 8.3e-10 mol/L
[4]
  IC50: 4.8 nM
  allergenic potency (Prel) at 25% inhibition (relative to native Phl p 5b): 1.64
  allergenic potency (Prel) at 50% inhibition (relative to native Phl p 5b): 0.864
  inhibition value (inhibitor concentration at 25% inhibition): 2e-10 mol/L
[5]
  IC50: 15 nM
  allergenic potency (Prel) at 25% inhibition (relative to native Phl p 5b): 0.922
  allergenic potency (Prel) at 50% inhibition (relative to native Phl p 5b): 0.399
  inhibition value (inhibitor concentration at 25% inhibition): 5.5e-10 mol/L
[6]
  IC50: 5.5 nM
  allergenic potency (Prel) at 25% inhibition (relative to native Phl p 5b): 0.855
  allergenic potency (Prel) at 50% inhibition (relative to native Phl p 5b): 0.468
  inhibition value (inhibitor concentration at 25% inhibition): 2.5e-10 mol/L
